The target in series [1] is T1, chymase (Homo sapiens, UniProt P23946).
T1 sequence (P23946 22-247): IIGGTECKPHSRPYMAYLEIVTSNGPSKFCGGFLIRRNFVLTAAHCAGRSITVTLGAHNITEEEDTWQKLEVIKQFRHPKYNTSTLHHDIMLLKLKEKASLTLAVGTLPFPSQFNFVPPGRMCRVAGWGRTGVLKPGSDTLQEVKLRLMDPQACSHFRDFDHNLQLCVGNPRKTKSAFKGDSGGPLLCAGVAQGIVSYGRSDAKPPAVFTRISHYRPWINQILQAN
Description: Surface plasmon resonance (Biacore T100), aptamer immobilized on SA chip, chymase injected as analyte. It is filed as binding. More on the design: key: ++: a sequence that binds to chymase significantly more strongly than the negative control 40N; +: a sequence that binds to chymase equivalently compared with the negative control 40N. The conditions noted are these: Table 1; about 1000 RU nucleic acid immobilized, chymase 0.2 μM analyte, running buffer solution A; compared with 40N. On the procedure:
Binding strength is measured using Biacore T100 (manufactured by GE Healthcare). In a method of measurement, the aptamer is first immobilized onto a sensor chip, the amount immobilized being about 1000 RU. 20 μL of a chymase solution for analyte, prepared at 0.2 μM, is injected, and the binding of chymase to the aptamer is detected. An RNA comprising a random nucleotide sequence of 30 or 40 nucleotides is used as a negative control.
The binding activities against chymase of the nucleic acids shown by SEQ ID NO: 4-20 and 22-34 were determined by the surface plasmon resonance method using Biacore T100 (manufactured by GE Healthcare). The sensor chip used was the SA chip, which had streptavidin immobilized thereon. Bound thereto was about 1500 RU of a 16-nucleotide Poly dT with biotin bound to the 5′ end thereof. […] 20 μL of chymase for analyte, prepared at 0.2 μM, was injected. Solution A was used as a running buffer.
The binding activities against chymase of the nucleic acids shown by SEQ ID NO: 38-48 were evaluated by the surface plasmon resonance method. In the evaluations for SEQ ID NO: 38-48, measurements were taken in the same manner as Example 1. Solution C was used as a running buffer.
(In SPR one partner is held on a chip, and binding of the other changes the refractive index at the surface.)

In series [2] the target is T2, chymase (recombinant, manufactured by SIGMA) (Homo sapiens, UniProt P23946).
T2 construct: purchased SIGMA; host or cells: yeast
T2 sequence (P23946 22-247): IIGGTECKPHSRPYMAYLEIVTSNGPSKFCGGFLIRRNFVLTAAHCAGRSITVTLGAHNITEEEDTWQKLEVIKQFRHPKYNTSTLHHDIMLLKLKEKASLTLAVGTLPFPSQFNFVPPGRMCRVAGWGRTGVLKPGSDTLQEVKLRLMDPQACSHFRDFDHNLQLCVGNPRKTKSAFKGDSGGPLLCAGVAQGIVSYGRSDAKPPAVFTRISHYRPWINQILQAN
Description: Chymase inhibitory activity using synthetic substrate Suc-Ala-Ala-Pro-Phe-MCA. Type of series: biochemical. The conditions noted are these: Table 3; substrate 100 μM, solution C, 37° C.; mean value for 2 to 3 measurements. The protocol: A first method employs a synthetic substrate. A useful chymase substrate is Suc-Ala-Ala-Pro-Phe-MCA (4-methylcoumaryl-7-amide group) (manufactured by Peptide Institute, Inc.), which contains the 4-amino acid peptide “Ala-Ala-Pro-Phe”, a standard substrate for chymotrypsin-like proteases.
The assay is performed using a 96-well plate (F16 Black Maxisorp Fluoronunc, manufactured by Nunc), with a reaction mixture volume of 100 μL, in a buffer solution (solution C; see Example 2 below). First, each nucleic acid is prepared in solution C to obtain 50 μL solutions. After 10 μL of the 1 mM substrate prepared in solution C is added, the plate is set to the microplate reader SpectraMax190 (manufactured by Molecular Devices Corporation), and incubated at 37° C. for 5 minutes. Separately, 0.05 μg of chymase (recombinant, manufactured by SIGMA) is diluted in solution C, and 40 μL of this dilution is incubated at 37° C. for 5 minutes. The chymase solution is added to the mixture of the nucleic acid and substrate to initiate an enzyme reaction. The plate containing the reaction mixture is set to the microplate reader SpectraMax190 (manufactured by Molecular Devices Corporation), and examined for time-dependent changes in the fluorescence intensity at 37° C. for 5 minutes (excitation wavelength 380 nm, detection wavelength 460 nm). A linear approximation of the increase in the fluorescence of the AMC (7-amino-4-methylcoumarine) released from the substrate by chymase activity is generated, and its slope is taken as the initial reaction velocity. For control, samples are treated and analyzed in the same manner in two cases: use of a nucleic acid pool containing a random sequence of 30 or 40 nucleotides (negative control), and use of chymostatin, a known chymotrypsin-like serine protease inhibitor (positive control). Taking the initial reaction velocity without the nucleic acid and inhibitor as a 100% enzyme activity, the inhibitory rate for each test substance is calculated, and the inhibitor concentration required to cause a 50% inhibition of the enzyme activity (IC50) is determined.
Whether the nucleic acids shown by SEQ ID NO: 4-20, 22-34, and 38-48 inhibit the enzyme activity of chymase was determined as described below. The chymase substrate used was Suc-Ala-Ala-Pro-Phe-MCA (manufactured by Peptide Institute, Inc.), which contains the 4-amino-acid peptide Ala-Ala-Pro-Phe, a standard substrate for chymotrypsin-like proteases. Here, Suc is a protecting succinyl group, and MCA is a 4-methylcoumaryl-7-amide group; upon cleavage of the C-terminal side of phenylalanine, AMC (7-amino-4-methylcoumarine) is released. By detecting the fluorescence of this AMC, the enzyme activity of chymase can be determined. The assay was performed using a 96-well plate (F16 Black Maxisorp Fluoronunc, manufactured by Nunc), with a reaction mixture volume of 100 μL, in solution C as a buffer solution. First, each nucleic acid was serially diluted to 0.0027-2 μM concentrations in solution C to obtain 50 μL solutions. After 10 μL of the 1 mM substrate prepared in solution C was added thereto, the plate was set to the microplate reader SpectraMax190 (manufactured by Molecular Devices Corporation), and incubated at 37° C. for 5 minutes. Separately, 0.05 μg (or 0.005 μg) of chymase (recombinant, manufactured by SIGMA) was diluted in solution C to obtain a 40 μL chymase solution, and incubated at 37° C. for 5 minutes. The chymase solution was added to the mixture of the nucleic acid and substrate to initiate an enzyme reaction. The final chymase concentration in the reaction mixture was 16.7 nM (or 1.67 nM), the final substrate concentration being 100 μM. The plate containing the reaction mixture was set to the microplate reader SpectraMax190 (manufactured by Molecular Devices Corporation), and examined for time-dependent changes in the fluorescence intensity at 37° C. for 5 minutes (or 30 minutes) (excitation wavelength 380 nm, detection wavelength 460 nm). […]

Series [3] deals with T3, chymase (Homo sapiens, UniProt P23946 P23946:22-247).
T3 sequence: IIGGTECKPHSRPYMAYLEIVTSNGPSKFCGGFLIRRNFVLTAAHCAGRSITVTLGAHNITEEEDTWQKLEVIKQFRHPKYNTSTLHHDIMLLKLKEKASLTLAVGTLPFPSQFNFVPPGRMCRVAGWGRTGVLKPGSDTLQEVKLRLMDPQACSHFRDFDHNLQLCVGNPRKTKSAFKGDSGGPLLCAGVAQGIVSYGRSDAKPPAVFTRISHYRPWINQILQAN
Description: inhibition; Suc-AAPF-MCA, 37 C, solution C. The conditions noted are these: tags: recombinant, expressed in yeast, SIGMA. The protocol: Here, Suc is a protecting succinyl group, and MCA is a 4-methylcoumaryl-7-amide group; upon cleavage of the C-terminal side of phenylalanine, AMC (7-amino-4-methyl-coumarine) is released. By detecting the fluorescence of this AMC, the enzyme activity of chymase can be determined. The assay was performed using a 96-well plate (F16 Black Maxisorp Fluoronunc, manufactured by Nunc), with a reaction mixture volume of 100 μL, in solution C as a buffer solution. First, each nucleic acid was serially diluted to 0.0027-2 μM concentrations in solution C to obtain 50 μL solutions. After 10 μL of the 1 mM substrate prepared in solution C was added thereto, the plate was set to the microplate reader SpectraMax190 (manufactured by Molecular Devices Corporation), and incubated at 37° C. for 5 minutes. Separately, 0.05 μg (or 0.005 μg) of chymase (recombinant, manufactured by SIGMA) was diluted in solution C to obtain a 40 μL chymase solution, and incubated at 37° C. for 5 minutes. The chymase solution was added to the mixture of the nucleic acid and substrate to initiate an enzyme reaction. The final chymase concentration in the reaction mixture was 16.7 nM (or 1.67 nM), the final substrate concentration being 100 μM. The plate containing the reaction mixture was set to the microplate reader SpectraMax190 (manufactured by Molecular Devices Corporation), and examined for time-dependent changes in the fluorescence intensity at 37° C. for 5 minutes (or 30 minutes) (excitation wavelength 380 nm, detection wavelength 460 nm). A linear approximation of the increase in the fluorescence of the AMC released from the substrate by chymase activity was generated, and its slope was taken as the initial velocity […]. For control, samples were treated and analyzed in the same manner in two cases: use of a 30N or 40N (a nucleotide of 30 or 40 consecutive bases represented by N; N is A, G, C or T) nucleic acid pool (negative control), and use of chymostatin, a known chymotrypsin-like serine protease inhibitor (positive control). Taking the initial reaction velocity without the nucleic acid and inhibitor (V_0) as a 100% enzyme activity, the inhibitory rate of each test substance was calculated using the following equation: […]
The chymase inhibitory activity was measured in the same manner as in Example 3.

Oligonucleotides are written 5' to 3', each unit as a sugar letter and its base; * is a phosphorothioate linkage, no mark a phosphodiester; rarer units and linkages stand in square brackets, end groups in braces. Plain capitals give the bases only. r = 2'-OH (RNA); f = 2'-fluoro

For orientation: IC50 means the concentration needed to halve the response being measured.

B1: 8 (nucleic acid)
chain: rGrGrGrAfCrGrGfUrArGrGrArAfUfUfCfUrAfCrGrGfUfCfUrGfUrGfUrGrArArAfUfUrGrArArAfCrAfCrAfCrArArArGrArAfCrArAfUrArArAfCrAfUrArGrArArGrArGfCrGrGfCfCrGfC
modifications: aptamer
Consider B1, for which the “Binding activity as determined using Biacore” value (shortened to “Binding activity as determined”) with chymase [1] was “++”. The concentration for half-maximal inhibition (IC50) in series [2] worked out at 453 ± 463 nM.

B2: 56(20) (ssRNA)
RNA: GGGUUAGAUAGAGUUAAAAACCC
modifications: 2'-F U and C; 2'-OMe 1-3,7,8,10,16,17,19,20
For B2, the IC50 with chymase [3] worked out at 102 nM.

B3: 9 (nucleic acid)
chain: rGrGrGrAfCrGrGfUrArGrGrArAfUfUfCfCfCrGrArArArArGfCrArAfCrArArGfCfUfUrGfCfUrArArArAfUrGrAfUfUfCfCrGrArArArArArAfCrAfCrAfUrArGrArArGrArGfCrGrGfCfCrGfC
In the case of B3, the “Binding activity as determined” value with chymase [1] is “++”. The 50% inhibitory concentration (IC50) in series [2] came out at 273 ± 69 nM.

B4: 56(40) (ssRNA)
RNA: GGGUUAGAUAGAGUUAAAAACCC
modifications: 2'-F U and C; 2'-OMe 2,3,7,8,10,13,16-20; 5' and 3' idT
Turning to B4, in the series with chymase [3], the IC50 was 51 nM.

B5: 56(49) (mixed)
RNA: GGGUUAGAUAGAGUUAAAAACCC
modifications: 2'-F U and C; 2'-OMe 1-3,7,10,13,16-20; DNA A6; 5' and 3' idT
B5: the IC50 in the series with chymase [3] turned out to be 69 nM.

B6: 56(52) (mixed)
RNA: GGGUUAGAUAGAGUUAAAAACCC
modifications: 2'-F U and C; 2'-OMe 1-3,10,13,16-20; DNA G7,A8; 5' and 3' idT
As to B6, the concentration for half-maximal inhibition (IC50) with chymase [3] turned out to be 52 nM.

B7: 56(24) (ssRNA)
RNA: GGGUUAGAUAGAGUUAAAAACCC
modifications: 2'-F U and C; 2'-OMe 1-3,19,20; 5' and 3' idT
With B7, in the series with chymase [3], the IC50 stood at 38 nM.

B8: 56(25) (ssRNA)
RNA: GGGUUAGAUAGAGUUAAAAACCC
modifications: 2'-F U and C; 2'-OMe 7,8,10; 5' and 3' idT
With B8, in the series with chymase [3], the IC50 stood at 70 nM.

B9: 15 (nucleic acid)
chain: rGrGrGrAfCrGrGfUrArGrGrArAfUfUfCfCfCrArGrArArArAfUrArArAfUfUfCfCrGrArArGrArArArAfCrArAfCrArAfUfUfUfUfUrGfCrArArAfCrAfUrArGrArArGrArGfCrGrGfCfCrGfC
modifications: aptamer
With B9, the “Binding activity as determined” value in the series with chymase [1] is given as “++”. Besides, the IC50 in series [2] amounted to 285 ± 21 nM.

The record behind these values is US9012420B2, “Aptamer for chymase, and use thereof” (Ribomic Inc., priority 2009, dated 2015).
